Experimental data: article PMC7721647, “The Human RNA Helicase DDX21 Presents a Dimerization Interface Necessary for Helicase Activity” (iScience, 2020)
Changes are numbered by the printed parent chain.

Columns and labels:
[1] = molecular target: T1, DDX21ΔNC (human, UniProt Q9NR30 186-710); assay: fluorescence polarization; FP: 50 mM Tris pH 7.5, 50 mM KCl, 5 mM MgCl2, no ATP; Hill-slope fit; temperature not given in the material; conditions: protein: recombinant, chain copies: 2
T1 sequence: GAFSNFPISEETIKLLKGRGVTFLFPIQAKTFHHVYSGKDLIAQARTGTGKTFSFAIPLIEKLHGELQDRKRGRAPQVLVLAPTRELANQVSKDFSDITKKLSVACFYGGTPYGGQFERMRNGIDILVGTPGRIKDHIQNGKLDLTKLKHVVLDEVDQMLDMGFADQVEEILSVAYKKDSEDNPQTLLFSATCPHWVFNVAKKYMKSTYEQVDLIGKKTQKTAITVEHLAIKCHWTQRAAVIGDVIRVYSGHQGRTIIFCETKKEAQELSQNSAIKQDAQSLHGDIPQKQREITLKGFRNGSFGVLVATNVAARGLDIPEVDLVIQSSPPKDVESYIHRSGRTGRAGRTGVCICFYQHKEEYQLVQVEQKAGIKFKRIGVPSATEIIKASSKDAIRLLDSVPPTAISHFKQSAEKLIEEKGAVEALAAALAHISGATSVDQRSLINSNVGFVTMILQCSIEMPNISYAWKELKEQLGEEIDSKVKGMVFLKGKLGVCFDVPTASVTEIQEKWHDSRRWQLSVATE

[2] = molecular target: T2, DDX21Fl monomer (human, UniProt Q9NR30 1-783, L611R;A612R;A613R;A614R;L615R;A616R); assay: as above; conditions: protein: recombinant
T2 sequence: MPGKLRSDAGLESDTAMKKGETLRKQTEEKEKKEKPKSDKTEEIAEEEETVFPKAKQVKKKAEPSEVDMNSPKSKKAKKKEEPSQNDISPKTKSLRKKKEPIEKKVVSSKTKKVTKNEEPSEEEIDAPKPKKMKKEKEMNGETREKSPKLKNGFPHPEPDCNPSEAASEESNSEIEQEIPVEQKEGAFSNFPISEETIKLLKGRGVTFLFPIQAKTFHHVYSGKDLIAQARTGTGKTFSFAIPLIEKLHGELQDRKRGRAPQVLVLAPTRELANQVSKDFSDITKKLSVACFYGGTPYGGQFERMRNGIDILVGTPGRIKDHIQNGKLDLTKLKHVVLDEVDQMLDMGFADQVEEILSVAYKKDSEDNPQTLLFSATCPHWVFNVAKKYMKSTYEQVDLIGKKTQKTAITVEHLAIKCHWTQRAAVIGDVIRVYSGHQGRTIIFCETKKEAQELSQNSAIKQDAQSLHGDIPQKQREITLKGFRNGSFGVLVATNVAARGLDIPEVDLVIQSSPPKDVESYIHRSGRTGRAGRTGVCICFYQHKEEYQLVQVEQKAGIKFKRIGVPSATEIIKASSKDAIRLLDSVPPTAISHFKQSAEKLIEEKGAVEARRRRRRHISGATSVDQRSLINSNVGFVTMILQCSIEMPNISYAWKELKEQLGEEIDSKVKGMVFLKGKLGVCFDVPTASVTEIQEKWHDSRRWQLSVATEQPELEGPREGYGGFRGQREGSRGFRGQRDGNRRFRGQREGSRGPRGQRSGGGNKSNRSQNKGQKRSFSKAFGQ

[3] = molecular target: T3, DDX21Core (human, UniProt Q9NR30 186-564); assay: as above; conditions: protein: recombinant
T3 sequence: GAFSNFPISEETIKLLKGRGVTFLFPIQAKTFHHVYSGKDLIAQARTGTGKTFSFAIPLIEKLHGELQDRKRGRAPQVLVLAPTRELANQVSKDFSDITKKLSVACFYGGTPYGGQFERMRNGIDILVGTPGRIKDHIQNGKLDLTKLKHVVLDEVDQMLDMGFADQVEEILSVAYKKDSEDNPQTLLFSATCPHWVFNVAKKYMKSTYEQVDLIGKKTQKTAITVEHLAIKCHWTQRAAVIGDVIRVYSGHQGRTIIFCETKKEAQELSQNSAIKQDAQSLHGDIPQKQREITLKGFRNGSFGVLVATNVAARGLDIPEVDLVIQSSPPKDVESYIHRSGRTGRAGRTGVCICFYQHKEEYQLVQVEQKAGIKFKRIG

[4] = molecular target: T4, DDX21Fl (human, UniProt Q9NR30 1-783); assay: fluorescence polarization; no ATP; 50 mM KCl; FP: 50 mM Tris pH 7.5, 50 mM KCl, 5 mM MgCl2, no ATP; Hill-slope fit; temperature not given in the material; conditions: protein: recombinant; tags: N-terminal Trx-His6, cut with thrombin; chain copies: 2; label: 5'-FAM; G4
T4 sequence: T2 sequence with R611L, R612A, R613A, R614A, R615L, R616A

[5] = label: 5'-FAM on 15-mer, 3' overhang 15 nt

B1: dsRNA 15/30mer 3' overhang (dsRNA)
RNA 1: GUUUCGGAUCGACGC
RNA 2: GCGUCGAUCCGAAACUAUACUUAAUUUUAA
- Kd [1, 5]: 217 ± 10.4 nM
- Kd [2, 5]: 13.9 ± 2.5 nM
- Kd [3, 5]: 353 ± 27.9 nM

Binder: GUUGGGGCGGGCGUUGGGUUUGGGGGGACG (structured_RNA) [Q2 RNA G-quadruplex]
- Kd [4]: 2.6 ± 0.1 nM

Binder: GUUUCGGAUCGACGC (ssRNA) [15-mer ssRNA]
- Kd ([1]; label: 5'-FAM, single strand): 688 ± 52.7 nM
- Kd ([2]; label: 5'-FAM, single strand): 29.9 ± 2.7 nM
- Kd ([3]; label: 5'-FAM, single strand): 1520 ± 112 nM
